This note sets out measurements from article PMC3269026 (Frontiers in Microbiology, 2012).

The assay has as its target T1, translocated intimin receptor (Tir) of EPEC, delivered to HEp-2 cells (EPEC (strain JPN15.96), UniProt B7UM99 1-550).
T1 sequence: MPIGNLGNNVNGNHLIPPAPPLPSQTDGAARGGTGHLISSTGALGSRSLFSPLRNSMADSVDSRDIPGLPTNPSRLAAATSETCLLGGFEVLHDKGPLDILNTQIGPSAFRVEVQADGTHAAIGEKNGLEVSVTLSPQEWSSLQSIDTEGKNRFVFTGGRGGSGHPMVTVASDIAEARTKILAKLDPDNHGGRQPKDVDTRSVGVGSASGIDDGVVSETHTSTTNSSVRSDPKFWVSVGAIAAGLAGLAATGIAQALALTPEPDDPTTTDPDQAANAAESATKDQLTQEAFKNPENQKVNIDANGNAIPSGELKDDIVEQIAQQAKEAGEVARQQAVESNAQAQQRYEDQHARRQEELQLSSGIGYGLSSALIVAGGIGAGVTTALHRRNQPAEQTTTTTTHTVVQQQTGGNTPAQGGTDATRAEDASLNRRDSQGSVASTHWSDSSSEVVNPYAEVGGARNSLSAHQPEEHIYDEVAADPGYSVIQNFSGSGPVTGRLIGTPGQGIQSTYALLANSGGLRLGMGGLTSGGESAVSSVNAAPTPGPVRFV
Nature of the assay: bacterial adherence to Tir-primed cells.

B1: EHEC intimin (natural protein)
chain: NGENYFKLGSDSKLLTHDSYQNRLFYTLKTGETVADLSKSQDINLSTIWSLNKHLYSSESEMMKAAPGQQIILPLKKLPFEYSALPLLGSAPLVAAGGVAGHTNKLTKMSPDVTKSNMTDDKALNYAAQQAASLGSQLQSRSLNGDYAKDTALGIAGNQASSQLQAWLQHYGTAEVNLQSGNNFDGSSLDFLLPFYDSEKMLAFGQVGARYIDSRFTANLGAGQRFFLPANMLGYNVFIDQDFSGDNTRLGIGGEYWRDYFKSSVNGYFRMSGWHESYNKKDYDERPANGFDIRFNGYLPSYPALGAKLIYEQYYGDNVALFNSDKLQSNPGAATVGVNYTPIPLVTMGIDYRHGTGNENDLLYSMQFRYQFDKSWSQQIEPQYVNELRTLSGSRYDLVQRNNNIILEYKKQDILSLNIPHDINGTEHSTQKIQLIVKSKYGLDRIVWDDSALRSQGGQIQHSGSQSAQDYQAILPAYVQGGSNIYKVTARAYDRNGNSSNNVQLTITVLSNGQVVDQVGVTDFTADKTSAKADNADTITYTATVKKNGVAQANVPVSFNIVSGTATLGANSAKTDANGKATVTLKSSTPGQVVVSAKTAEMTSALNASAVIFFDQTKASITEIKADKTTAVANGKDAIKYTVKVMKNGQPVNNQSVTFSTNFGMFNGKSQTQATTGNDGRATITLTSSSAGKATVSATVSDGAEVKATEVTFFDELKIDNKVDIIGNNVRGELPNIWLQYGQFKLKASGGDGTYSWYSENTSIATVDASGKVTLNGKGSVVIKATSGDKQTVSYTIKAPSYMIKVDKQAYYADAMSICKNLLPSTQTVLSDIYDSWGAANKYSHYSSMNSITAWIKQTSSEQRSGVSSTYNLITQNPLPGVNVNTPNVYAVCVE
With B1, the “fold binding over C. rodentiumΔeae” value was approximately 20 fold.
